Key:
[1] = biological target: T1, TstI restriction-modification protein (His-tagged) (Thermus scotoductus RFL1 (printed as T. scotoductus RFL1)) (UniProt A6H2J1); assay: cleavage kinetics: kobs vs enzyme concentration, hyperbolic fit (no direct binding read-out); settings: EMSA conditions not given (data not shown); cleavage in buffer R (composition not in material), 37 C
T1 sequence: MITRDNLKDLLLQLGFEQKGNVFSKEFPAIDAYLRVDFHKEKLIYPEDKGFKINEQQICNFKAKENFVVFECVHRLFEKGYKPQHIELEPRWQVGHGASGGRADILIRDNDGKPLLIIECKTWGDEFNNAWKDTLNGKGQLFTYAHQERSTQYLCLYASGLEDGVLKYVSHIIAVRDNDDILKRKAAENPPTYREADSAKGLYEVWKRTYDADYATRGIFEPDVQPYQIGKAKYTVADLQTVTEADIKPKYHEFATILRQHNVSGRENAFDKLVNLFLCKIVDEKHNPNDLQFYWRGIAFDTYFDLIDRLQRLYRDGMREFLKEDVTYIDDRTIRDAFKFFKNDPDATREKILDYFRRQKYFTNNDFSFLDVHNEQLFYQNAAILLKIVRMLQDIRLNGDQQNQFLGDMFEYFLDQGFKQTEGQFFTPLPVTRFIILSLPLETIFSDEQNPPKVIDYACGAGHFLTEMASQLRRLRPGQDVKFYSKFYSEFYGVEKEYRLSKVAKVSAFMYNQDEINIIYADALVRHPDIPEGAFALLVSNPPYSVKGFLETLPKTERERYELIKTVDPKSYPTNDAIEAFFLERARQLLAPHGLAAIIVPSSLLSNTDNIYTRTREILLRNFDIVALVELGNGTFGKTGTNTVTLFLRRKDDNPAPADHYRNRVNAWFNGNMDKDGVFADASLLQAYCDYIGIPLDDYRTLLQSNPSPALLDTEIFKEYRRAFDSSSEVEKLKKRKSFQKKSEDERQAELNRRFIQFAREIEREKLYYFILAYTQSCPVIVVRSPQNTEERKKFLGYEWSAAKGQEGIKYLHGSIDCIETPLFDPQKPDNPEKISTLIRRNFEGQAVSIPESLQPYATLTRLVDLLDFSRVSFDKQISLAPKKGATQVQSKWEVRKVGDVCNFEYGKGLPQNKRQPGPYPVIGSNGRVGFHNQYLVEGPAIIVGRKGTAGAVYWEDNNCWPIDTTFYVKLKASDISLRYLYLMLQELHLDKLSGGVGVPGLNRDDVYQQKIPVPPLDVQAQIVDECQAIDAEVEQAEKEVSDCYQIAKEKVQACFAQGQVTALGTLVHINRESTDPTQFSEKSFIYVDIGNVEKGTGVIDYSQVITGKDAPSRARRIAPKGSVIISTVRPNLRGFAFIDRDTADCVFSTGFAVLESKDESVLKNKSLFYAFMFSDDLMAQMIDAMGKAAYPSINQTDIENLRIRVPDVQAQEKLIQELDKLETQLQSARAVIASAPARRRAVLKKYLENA

[2] = biological target: TstI RM protein (His-tagged form) (Thermus scotoductus RFL1); assay: AUC; sedimentation equilibrium; TstI 0.1-0.3 mg/ml in 20 mM Tris-HCl pH 8.4, 100 mM KCl, 10 mM MgCl2, 20°C; 5000, 6000 and 7500 rpm; global fit to a single ideal species
[3] = biological target: T2, TstI restriction-modification protein (His-tagged) (Thermus scotoductus RFL1 (printed as T. …, UniProt A6H2J1 1-1251)); assay: EMSA; data not shown; EMSA conditions not given (data not shown); cleavage in buffer R (composition not in material), 37 C; settings: protein: recombinant; tags: N-terminal His tag (pET15b, 20 extra aa); chain copies: 4
T2 sequence: T1 sequence

Question: With pTST1 as the molecule, how does the K half [1] read?
Answer: 19 nM

Question: For “TstI RM protein (His-tagged form) (enzyme)”, which stoichiometry N [2] is on record?
Answer: 4

B1: 50NS (dsDNA)
DNA 1: CTGTCTGAGATACACTCGTCTCGAACAAACCATCCAGTCTCTGACTATGT
DNA 2: ACATAGTCAGAGACTGGATGGTTTGTTCGAGACGAGTGTATCTCAGACAG
Question: Does B1 bind [3]?
Answer: binds

Source: PMC4027205, “TstI, a Type II restriction–modification protein with DNA recognition, cleavage and methylation functions in a single polypeptide”
